The values below come from US20140255408A1 (Janssen / Centocor, published 2014).

Positions count from the first letter of the chain named.

First the molecules themselves.
B1: P114AR7P95-D3 (designed binder, not shown: small tags and cut ends)
chain: LPAPKNLVVSRVTEDSARLSWTAPDAAFDSFWIRYFEFLGSGEAIVLTVPGSERSYDLTGLKPGTEYVVNIMGVKGGSISYPLSAIFTT
B2: P114AR7P94-A3 (designed binder, not shown: small tags and cut ends)
chain: B1 chain with S78K, Y81P
B3: P114AR7P95-F10 (designed binder, not shown: small tags and cut ends)
chain: B1 chain with L39T, G40T, S41A, Y81P
B4: P114AR7P93-G8 (designed binder, not shown: small tags and cut ends)
chain: B1 chain with G60D, V68G, N70T, M72N, S78R, I79V, Y81T
B5: P114AR7P94-E5 (designed binder, not shown: small tags and cut ends)
chain: B1 chain with V68A, S78R, I79V, Y81V
B6: P114AR7P92-G8 (designed binder, not shown: small tags and cut ends)
chain: B1 chain with W32V, N70Q, M72L, S78Y, Y81I
B7: P114AR5P75-E9 (designed binder, not shown: small tags and cut ends)
chain: B1 chain with W32F, F36D, G40R, V68W, N70T, M72L, S78L, I79V, Y81T
B8: P114AR7P95-B9 (designed binder, not shown: small tags and cut ends)
chain: B1 chain with N70Q, M72L, Y81V
B9: P114AR7P92-F6 (designed binder, not shown: small tags and cut ends)
chain: B1 chain with M72L, S78G, I79L, Y81V
B10: P114AR7P93-H9 (designed binder, not shown: small tags and cut ends)
chain: B1 chain with N70Q, M72I, S78H, Y81L
B11: P114AR7P92-F3 (designed binder, not shown: small tags and cut ends)
chain: B1 chain with V68I, Y81H
B12: ECB95 (designed binder)
chain: MLPAPKNLVVSEVTEDSARLSWDDPWAFYESFLIQYQESEKVGEAIVLTVPGSERSYDLTGLKPGTEYTVSIYGVHNVYKDTNIRGLPLSAIFTTAPAPAPAPAPLPAPKNLVVSRVTEDSARLSWTAPDAAFDSFWIRYFEFVGSGEAIVLTVPGSERSYDLTGLKPGTEYVVNILGVKGGSISPPLSAIFTT
notes: not shown: C-terminal poly-histidine tag
B13: ECB15 (designed binder)
chain: B12 chain with I84M, V144L, L177M, S183K
notes: as for B12
B14: ECB96 (designed binder)
chain: B12 chain with G145S, S146K, E148D
notes: as for B12
B15: ECB97 (designed binder)
chain: B12 chain with V144L, G178S
notes: as for B12
B16: ECB94 (designed binder)
chain: B12 chain with V144L, S183K
notes: as for B12
B17: P114AR7P95-D4 (designed binder, not shown: small tags and cut ends)
chain: B1 chain with N70Q, M72L, S78Y, Y81I
B18: P114AR7P92-H5 (designed binder, not shown: small tags and cut ends)
chain: B1 chain with F36L, G40L, S41G, N70Q, S78T, I79V, Y81P
B19: P114AR7P95-H8 (designed binder, not shown: small tags and cut ends)
chain: B1 chain with L39V, G40S, S41K, Y81P
B20: P114AR7P95-G7 (designed binder, not shown: small tags and cut ends)
chain: B1 chain with F38L, G40S, S41T, Y81P
B21: P54AR4-47 (designed binder)
chain: LPAPKNLVVSEVTEDSLRLSWWDPFSFYDSFLIQYQESEKVGEAINLTVPGSERSYDLTGLKPGTEYTVSIYGVHNVYKDTNMRGLPLSAEFTT
B22: P114AR7P93-D11 (designed binder, not shown: small tags and cut ends)
chain: B1 chain with N70G, M72N, S78Y
B23: P114AR7P95-E3 (designed binder, not shown: small tags and cut ends)
chain: B1 chain with N70Q, S78T, I79V, Y81P

One assay deals with T1, Recombinant human c-Met Fc chimera (human, UniProt P08581 16-932).
T1 construct: not shown: Fc part
The assay is described as follows: HGF competition assay on coated c-Met-Fc, competitor biotinylated HGF.
Consider B1, for which the IC50 (in general, the point on the concentration scale where inhibition reaches its midpoint) was found to be 0.2 nM.

With B2, the IC50 came to 0.2 nM.

As for B3, the IC50 was 1.4 nM.

Regarding B4, the IC50 came out at 1 nM.

For the molecule B5, the IC50 was 0.7 nM.

On to B6, for which the half-inhibitory concentration (IC50) was 1.6 nM.

Turning to B7, the IC50 amounted to 51.9 nM.

B8: the IC50 came out at 0.3 nM.

For B9, the IC50 was 2.2 nM.

As for B10, the IC50 was determined as 2.9 nM.

For B11, the IC50 was found to be 0.2 nM.

The next assay concerns the target T2, recombinant human extracellular domain of EGFR fused to an IgG1 Fc (human, UniProt P00533 25-645).
T2 construct: Bought from R&D Systems; The residues are stated for the panning reagent; also called EGFR-Fc; EGF R-Fc; not shown: IgG1 Fc
The assay is described as follows: SPR (ProteOn), protocol of Example 3, recombinant EGFR extracellular domain. The method, then: All 6 analyte channels were used for the FN3 domains to maximize screening throughput. The dissociation phase was monitored for 10 minutes at a flow rate of 100 μL/min. The inter-spot binding signals were used as references to monitor non-specific binding between analytes and the immobilized IgG surface, and were subtracted from all binding responses. The processed binding data were locally fit to a 1:1 simple Langmuir binding model to extract the koff for each FN3 domain binding to captured EGFR-Fc.
Binding affinity of selected EGFR-binding FN3 domains to recombinant EGFR extracellular domain was further characterized by surface Plasmon resonance methods using a Proteon Instrument (BioRad). The assay set-up (chip preparation, EGFR-Fc capture) was similar to that described above for off-rate analysis. Selected EGFR binding FN3 domains were tested at 1 μM concentration in 3-fold dilution series in the horizontal orientation. A buffer sample was also injected to monitor the baseline stability. […] Two sets of reference data were subtracted from the response data: 1) the inter-spot signals to correct for the non-specific interactions between the EGFR-binding FN3 domain and the immobilized IgG surface; 2) the buffer channel signals to correct for baseline drifting due to the dissociation of captured EGFR-Fc surface over time. The processed binding data at all concentrations for each FN3 domain were globally fit to a 1:1 simple Langmuir binding model to extract estimates of the kinetic (kₘ, koff) and affinity (KD) constants.
Consider B12, for which the Kd (usually a measure of binding affinity in units of concentration) worked out at 1.1 nM.

As for B13, the Kd was 0.2 nM.

In the case of B14, the Kd is 1.6 nM.

B15: the Kd stood at 1.3 nM.

B16: the Kd worked out at 1 nM.

Another assay concerns the target T1, Recombinant human c-Met Fc chimera. The assay is described as follows: SPR (ProteOn), c-Met-Fc captured on anti-human Fc IgG, FN3 domain as analyte.
Take B1: the Kd is 0.3 nM.

As for B2, the Kd was 0.4 nM.

Regarding B3, the Kd was 4.2 nM.

For the molecule B4, the Kd worked out at 6.9 nM.

B5: the Kd came to 4.2 nM.

Consider B6, for which the dissociation constant (Kd) was determined as 1 nM.

B7: the dissociation constant (Kd) was 45.8 nM.

Consider B17, for which the Kd came out at 0.4 nM.

Take B9: the dissociation constant (Kd) came out at 3.1 nM.

For B10, the Kd came out at 3.3 nM.

As to B18, the Kd turned out to be 11.6 nM.

In the case of B11, the Kd worked out at 0.4 nM.

In the case of B19, the Kd turned out to be 3.7 nM.

In the case of B20, the Kd came to 20 nM.

In a further assay the target is T3, human EGFR on cells (human, UniProt P00533 25-1210). The assay is described as follows: cell-based or functional assay.
With B12, the “H292 pEGFR inhibition in H292 cells (IC50)” value (shortened to “H292 pEGFR inhibition”) was 13.6 nM.

For B13, the “H292 pEGFR inhibition” value was 4.2 nM.

Consider B14, for which the “H292 pEGFR inhibition” value was 24.7 nM.

In the case of B15, the “H292 pEGFR inhibition” value was determined as 16.6 nM.

As for B16, the “H292 pEGFR inhibition” value worked out at 5.1 nM.

The target in the next assay is T4, human c-Met on cells (human, UniProt P08581 25-1390). The assay is described as follows: cell-based or functional assay.
As to B12, the “pMet inhibition in H441 cells (IC50)” value was determined as 179 nM.

For B14, the “pMet inhibition in H441 cells (IC50)” value is 835 nM.

With B15, the “pMet inhibition in H441 cells (IC50)” value was found to be 24.2 nM.

As for B16, the “pMet inhibition in H441 cells (IC50)” value amounted to 53.8 nM.

The target of another assay is T3, human EGFR on cells. The assay is described as follows: cell-based or functional assay. The source holds these as a separate data set.
B21: the “Phospho-EGFR IC50 (A431 cells)” value amounted to 295 nM.

For another assay, the target named is T4, human c-Met on cells. The assay can be described thus: H441 cell binding assay, anti-His detection. Here is the method:
Purified FN3 domains (50 μL/well; 0 to 1000 nM) were added to the cells for 1 hour at 4° C. in duplicate plates. […] Cells were incubated with biotinylated-anti HIS antibody (diluted 1:160 in FACS stain buffer, 50 μL/well, R&D Systems, cat #BAM050) for 30 minutes at 4° C. […] Cells were washed three times with FACS stain buffer (150 μL/well) and left in FACS stain buffer (50 μL/well).
With B2, the EC50 (in general, the midpoint of the concentration-response curve) was determined as 1.4 nM.

Consider B3, for which the response was half-maximal at 4.4 nM (EC50).

The molecule B4 came in with an EC50 of 3.8 nM.

For B5, a half-maximal effect (EC50) was put at 3.4 nM. The EC50 values of the last two molecules are within 1.5-fold of each other.

Turning to B6, a half-maximal effect (EC50) was put at 5.9 nM.

Molecule B17 gave a 50% effective concentration (EC50) of 1.4 nM. This EC50 is about 4.2-fold lower than that of the molecule before.

Molecule B22 yielded an EC50 of 2.3 nM.

As to B9, the EC50 stood at 4.9 nM.

As to B10, the EC50 turned out to be 12.9 nM.

The molecule B18 displayed a 50% effective concentration (EC50) of 22 nM.

B19 yielded an EC50 of 4.1 nM.

Take B23: a half-maximal effect (EC50) was put at 3.2 nM.

Molecule B20 gave an EC50 of 11.3 nM.

Another assay addresses T1, Recombinant human c-Met Fc chimera. The assay can be described thus: SPR (ProteOn), protocol of Example 3, recombinant c-Met extracellular domain.
As to B12, the dissociation constant Kd was determined as 6.2 nM.

As for B13, the Kd stood at 2.6 nM.

Regarding B14, the Kd worked out at 22.1 nM.

For the molecule B15, the Kd stood at 1.7 nM.

For B16, the dissociation constant (Kd) is 4.3 nM.

A further assay has as its target T4, human c-Met on cells. The assay is described as follows: cell-based or functional assay. This is another data set of the same source.
In the case of B1, the “pMet inhibition in H441 cells (IC50)” value is 4.6 nM.

Turning to B2, the “Inhibition of Proliferation of U87-MG cells (IC50)” value (“Inhibition … of U87-MG cells (IC50)” for short) worked out at 9.3 nM and the “pMet inhibition in H441 cells (IC50)” value came out at 5 nM.

On to B3, for which the “Inhibition … of U87-MG cells (IC50)” value was determined as 130 nM and the “pMet inhibition in H441 cells (IC50)” value came to 188 nM.

Consider B4, for which the “Inhibition … of U87-MG cells (IC50)” value worked out at 104 nM and the “pMet inhibition in H441 cells (IC50)” value is 460 nM.

B5: the “Inhibition … of U87-MG cells (IC50)” value worked out at 196 nM and the “pMet inhibition in H441 cells (IC50)” value came out at 124 nM.

B6: the “Inhibition … of U87-MG cells (IC50)” value is 124 nM and the “pMet inhibition in H441 cells (IC50)” value was determined as 155 nM.

Consider B7, for which the “Inhibition … of U87-MG cells (IC50)” value was 1190 nM and the “pMet inhibition in H441 cells (IC50)” value is 1.42 µM.

As for B8, the “Inhibition … of U87-MG cells (IC50)” value was 17.4 nM and the “pMet inhibition in H441 cells (IC50)” value stood at 9.8 nM.

Take B17: the “Inhibition … of U87-MG cells (IC50)” value is 19.4 nM and the “pMet inhibition in H441 cells (IC50)” value came out at 19.5 nM.

On to B22, for which the “Inhibition … of U87-MG cells (IC50)” value is 14.4 nM and the “pMet inhibition in H441 cells (IC50)” value amounted to 16 nM.

Consider B9, for which the “Inhibition … of U87-MG cells (IC50)” value was found to be 350 nM and the “pMet inhibition in H441 cells (IC50)” value amounted to 165 nM.

For the molecule B10, the “Inhibition … of U87-MG cells (IC50)” value is 270 nM and the “pMet inhibition in H441 cells (IC50)” value is 288 nM.

As to B18, the “Inhibition … of U87-MG cells (IC50)” value turned out to be 672 nM and the “pMet inhibition in H441 cells (IC50)” value was 766 nM.

Turning to B11, the “Inhibition … of U87-MG cells (IC50)” value is 2.7 nM and the “pMet inhibition in H441 cells (IC50)” value was 8.3 nM.

On to B19, for which the “Inhibition … of U87-MG cells (IC50)” value worked out at 281 nM and the “pMet inhibition in H441 cells (IC50)” value amounted to 210 nM.

In the case of B23, the “Inhibition … of U87-MG cells (IC50)” value was determined as 209 nM and the “pMet inhibition in H441 cells (IC50)” value was determined as 205 nM.

B20: the “Inhibition … of U87-MG cells (IC50)” value was determined as 692 nM and the “pMet inhibition in H441 cells (IC50)” value turned out to be 659 nM.
